These results are taken from paper doi:10.1101/308353.

The assay has as its target GFP-βRat CaMKII holoenzyme (rat) (UniProt P08413). The experiment in a line: single molecule TIRF microscopy.
UniProt P08413, sequence (P08413 whole entry): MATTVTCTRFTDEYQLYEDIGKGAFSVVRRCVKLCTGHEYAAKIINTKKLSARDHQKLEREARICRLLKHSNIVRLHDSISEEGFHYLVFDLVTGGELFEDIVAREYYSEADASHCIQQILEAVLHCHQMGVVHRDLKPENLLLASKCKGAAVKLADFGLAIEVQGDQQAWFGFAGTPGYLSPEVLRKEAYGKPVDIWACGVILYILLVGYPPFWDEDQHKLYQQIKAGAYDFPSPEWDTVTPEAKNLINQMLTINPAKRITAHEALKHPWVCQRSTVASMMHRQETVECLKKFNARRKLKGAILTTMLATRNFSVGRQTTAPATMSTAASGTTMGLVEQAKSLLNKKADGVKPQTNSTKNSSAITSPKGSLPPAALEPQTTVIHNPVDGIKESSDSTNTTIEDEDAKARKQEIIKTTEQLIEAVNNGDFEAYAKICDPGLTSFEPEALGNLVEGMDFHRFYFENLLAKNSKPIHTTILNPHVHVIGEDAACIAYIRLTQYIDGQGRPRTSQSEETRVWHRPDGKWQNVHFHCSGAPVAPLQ

The substance “Cy3 conjugated G-actin (from UniProt P68135 1-377) (natural protein)” gave a Pearson's correlation of co-localization of 0.33.
